Reference: patent US20190153065A1 (ALBERT EINSTEIN COLLEGE OF MEDICINE, published 2019)
Values belong to the binder of their own block, whether it stands above or below them.

Key:
[1] = target: T1, wild-type mouse PD-L1 mCherry (full-length mouse PD-L1 with C-terminal mCherry, on HEK 293 cells) (mouse, UniProt Q9EP73 19-290); experiment: cell microarray challenged with Fc fusion protein
T1 construct: whole, on cells; also called wild type PD-L1; mPD-L1 mCherry; not shown: C-terminal mCherry (Clontech N1 mCherry vector)

[2] = target: T2, PD-L1 mutant D122A (mouse PD-L1-mCherry fusion) (mouse, UniProt Q9EP73 19-290); experiment: microbead FACS binding assay: protein A microbeads loaded with Fc fusion, HEK 293 cells displaying the PD-L1-mCherry mutant
T2 construct: whole, on cells; not shown: C-terminal mCherry (Clontech N1 mCherry vector)
Description: (§1) PD-L1 mCherry mutant constructs were transiently transfected into HEK 293S cells and subsequently challenged with protein A microbeads (Milltenyi) pre-saturated with a 4:1 mixture of PD-1 Fc-fusion and FITC-Fc protein. A total Fc protein to bead ratio of 5 ug/10 uL microbeads was utilized on the basis of a previous report from Genentech (16). The FITC-Fc served to make the otherwise non-fluorescent microbeads show green fluorescence. For each titration experiment, 500 μL of protein A microbeads were loaded with a mixture of 10 μg fluorescein isothiocyanate (FITC)-Fc and 40 μg of either PD-1-Fc or B7-1-Fc protein in a total volume of 5 mL 1× phosphate buffered saline (PBS). The beads were incubated overnight (˜16 hours) at 4° C. Loaded beads were stored for up to two weeks prior to use. Initial experiments determined that 75 μL of the loaded beads were sufficient to saturate 150,000 cells transfected with wild type PD-L1, (transfection efficiency being consistently 60-70%). For titration experiments, sets of wild type and mutant PD-L1 constructs were transfected in 24-well tissue culture plates containing 1 mL of suspension HEK-293 cells. Three days post transfection cells were counted, diluted to 1×10⁶ cell/mL with 1×PBS with 2% BSA. 150K cells (150 μL) were transferred to Eppendorf tubes, and 75 μL of loaded microbeads added along with an additional 100 μL 1×PBS with 2% bovine serum albumin (BSA). Reactions were mixed end over end for 1 hour at 4° C., 4′,6-diamidino-2-phenylindole (DAPI) was added and samples were immediately analyzed by flow cytometry on a BD Aria III cytometer. Data were analyzed by gating first for live cells (DAPI negative) then for mCherry positive cells (PD-L1 expression). The percentage of mCherry positive cells that were FITC positive (microbeads bound) was used as “percent bound”. For each experiment, the percent bound was normalized to wild type binding.
(§2) These cells were probed by flow cytometry for their ability to bind either FITC-loaded microbeads decorated with wild type PD-1 Ig-fusion or wild type B7-1 Ig-fusion proteins (FIG. 7B).

[3] = target: T3, PD-L1 mutant Y123R (mouse PD-L1-mCherry fusion) (mouse, UniProt Q9EP73 19-290); experiment: as above
T3 construct: whole, on cells; not shown: C-terminal mCherry (Clontech N1 mCherry vector)
Description: as §1, §2

[4] = target: T4, PD-L1 mutant Y123A (mouse PD-L1-mCherry fusion) (mouse, UniProt Q9EP73 19-290); experiment: as above
T4 construct: whole, on cells; not shown: C-terminal mCherry (Clontech N1 mCherry vector)
Description: as §1, §2

[5] = target: T5, PD-L1 mutant K124A (mouse PD-L1-mCherry fusion) (mouse, UniProt Q9EP73 19-290); experiment: as above
T5 construct: whole, on cells; not shown: C-terminal mCherry (Clontech N1 mCherry vector)
Description: as §1, §2

[6] = target: T6, PD-L1 mutant K124D (mouse PD-L1-mCherry fusion) (mouse, UniProt Q9EP73 19-290); experiment: as above
T6 construct: whole, on cells; not shown: C-terminal mCherry (Clontech N1 mCherry vector)
Description: as §1, §2

[7] = target: T7, PD-L1 mutant R125A (mouse PD-L1-mCherry fusion) (mouse, UniProt Q9EP73 19-290); experiment: as above
T7 construct: whole, on cells; not shown: C-terminal mCherry (Clontech N1 mCherry vector)
Description: as §1, §2

[8] = target: T8, PD-L1 mutant R125D (mouse PD-L1-mCherry fusion) (mouse, UniProt Q9EP73 19-290); experiment: as above
T8 construct: whole, on cells; not shown: C-terminal mCherry (Clontech N1 mCherry vector)
Description: as §1, §2

[9] = target: T9, PD-L1 mutant L53D (mouse PD-L1-mCherry fusion) (mouse, UniProt Q9EP73 19-290); experiment: as above
T9 construct: whole, on cells; not shown: C-terminal mCherry (Clontech N1 mCherry vector)
Description: as §1, §2

[10] = target: T10, PD-L1 mutant L53R (mouse PD-L1-mCherry fusion) (mouse, UniProt Q9EP73 19-290); experiment: as above
T10 construct: whole, on cells; not shown: C-terminal mCherry (Clontech N1 mCherry vector)
Description: as §1, §2

[11] = target: T11, PD-L1 mutant I115D (mouse PD-L1-mCherry fusion) (mouse, UniProt Q9EP73 19-290); experiment: as above
T11 construct: whole, on cells; not shown: C-terminal mCherry (Clontech N1 mCherry vector)
Description: as §1, §2

[12] = target: T12, PD-L1 mutant I116R (mouse PD-L1-mCherry fusion) (mouse, UniProt Q9EP73 19-290); experiment: as above
T12 construct: whole, on cells; not shown: C-terminal mCherry (Clontech N1 mCherry vector)
Description: as §1, §2

[13] = target: T13, PD-L1 mutant G119R (mouse PD-L1-mCherry fusion) (mouse, UniProt Q9EP73 19-290); experiment: as above
T13 construct: whole, on cells; not shown: C-terminal mCherry (Clontech N1 mCherry vector)
Description: as §1, §2

[14] = target: T14, PD-L1 mutant G120A (mouse PD-L1-mCherry fusion) (mouse, UniProt Q9EP73 19-290); experiment: as above
T14 construct: whole, on cells; not shown: C-terminal mCherry (Clontech N1 mCherry vector)
Description: as §1, §2

[15] = target: T15, PD-L1 mutant G120R (mouse PD-L1-mCherry fusion) (mouse, UniProt Q9EP73 19-290); experiment: as above
T15 construct: whole, on cells; not shown: C-terminal mCherry (Clontech N1 mCherry vector)
Description: as §1, §2

[16] = target: T16, PD-L1 mutant A121D (mouse PD-L1-mCherry fusion) (mouse, UniProt Q9EP73 19-290); experiment: as above
T16 construct: whole, on cells; not shown: C-terminal mCherry (Clontech N1 mCherry vector)
Description: as §1, §2

[17] = target: T17, PD-L1 mutant A121R (mouse PD-L1-mCherry fusion) (mouse, UniProt Q9EP73 19-290); experiment: as above
T17 construct: whole, on cells; not shown: C-terminal mCherry (Clontech N1 mCherry vector)
Description: as §1, §2

[18] = target: T18, PD-L1 mutant D122R (mouse PD-L1-mCherry fusion) (mouse, UniProt Q9EP73 19-290); experiment: as above
T18 construct: whole, on cells; not shown: C-terminal mCherry (Clontech N1 mCherry vector)
Description: as §1, §2

[19] = target: T1, wild-type mouse PD-L1 mCherry …; experiment: FACS competition: mPD-1 mIgG2a titrated (0.01-250 nM dimer) against 5 nM mB7-1 hIgG1 (competitor) on HEK 293 cells expressing mPD-L1 mCherry; one-site competition fit, three experiments
From the text: A mB7-1 hIgG1 Fc fusion construct was cloned which used the same erythropoietin (EPO) leader, mB7-1 ecto domain boundaries and linker sequence as the original mIgG2a construct described above. This construct was transiently expressed in HEK 293 cells and purified as described above for the other Fc fusion proteins used. For the completion experiment, HEK 293 suspension cells were transiently transfected with wild-type mPD-L1 mCherry. Three days post transfection transfected cells were counted and diluted to 1×10⁶ cells/mL. B7-1 hIgG1 fusion protein was added to 100,000 transfected cells at a final concentration of 5 nM dimer, in either the absence or presence of increasing concentrations of PD-1 mIgG2a protein (0.01-250 nM dimer). Parallel experiments were carried out in which purified mIgG2a isotype control was titrated at equivalent molar concentrations. Protein binding was carried out at 22° C. shaking at 900 rpm on a 96-well plate shaker for 1 hour. […] Cells were subsequently washed two more times with 1×PBS with 0.2% BSA. […] Competition data was normalized to 5 nM B7-1 binding in the absence of mPD-1 and plotted as a function of log [mPD-1]. Average data from three independent experiments was fit using a one-site competition model equation Y=min+(max−min)/(1+10^{x-log EC50}).
A) Cartoon depiction of the competition assay. […]

T10 sequence (Q9EP73 19-290 L53R): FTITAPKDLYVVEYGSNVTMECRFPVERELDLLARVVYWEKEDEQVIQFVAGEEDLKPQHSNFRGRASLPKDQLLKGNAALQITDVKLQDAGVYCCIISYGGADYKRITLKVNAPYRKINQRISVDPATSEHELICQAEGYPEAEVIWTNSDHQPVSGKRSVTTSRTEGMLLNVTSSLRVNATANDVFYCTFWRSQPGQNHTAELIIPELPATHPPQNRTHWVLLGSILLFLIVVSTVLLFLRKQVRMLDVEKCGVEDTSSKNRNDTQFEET
T9 sequence (Q9EP73 19-290 L53D): as the sequence (Q9EP73 19-290 L53R) above, with R35D counted along it
T18 sequence (Q9EP73 19-290 D122R): as the sequence (Q9EP73 19-290 L53R) above, with R35L, D104R counted along it
T1 sequence (Q9EP73 19-290): as the sequence (Q9EP73 19-290 L53R) above, with R35L counted along it
T11 sequence (Q9EP73 19-290 I115D): as the sequence (Q9EP73 19-290 L53R) above, with R35L, I97D counted along it
T17 sequence (Q9EP73 19-290 A121R): as the sequence (Q9EP73 19-290 L53R) above, with R35L, A103R counted along it
T14 sequence (Q9EP73 19-290 G120A): as the sequence (Q9EP73 19-290 L53R) above, with R35L, G102A counted along it
T12 sequence (Q9EP73 19-290 I116R): as the sequence (Q9EP73 19-290 L53R) above, with R35L, I98R counted along it
T15 sequence (Q9EP73 19-290 G120R): as the sequence (Q9EP73 19-290 L53R) above, with R35L, G102R counted along it
T16 sequence (Q9EP73 19-290 A121D): as the sequence (Q9EP73 19-290 L53R) above, with R35L, A103D counted along it
T13 sequence (Q9EP73 19-290 G119R): as the sequence (Q9EP73 19-290 L53R) above, with R35L, G101R counted along it
T7 sequence (Q9EP73 19-290 R125A): as the sequence (Q9EP73 19-290 L53R) above, with R35L, R107A counted along it
T4 sequence (Q9EP73 19-290 Y123A): as the sequence (Q9EP73 19-290 L53R) above, with R35L, Y105A counted along it
T5 sequence (Q9EP73 19-290 K124A): as the sequence (Q9EP73 19-290 L53R) above, with R35L, K106A counted along it
T8 sequence (Q9EP73 19-290 R125D): as the sequence (Q9EP73 19-290 L53R) above, with R35L, R107D counted along it
T6 sequence (Q9EP73 19-290 K124D): as the sequence (Q9EP73 19-290 L53R) above, with R35L, K106D counted along it
T3 sequence (Q9EP73 19-290 Y123R): as the sequence (Q9EP73 19-290 L53R) above, with R35L, Y105R counted along it
T2 sequence (Q9EP73 19-290 D122A): as the sequence (Q9EP73 19-290 L53R) above, with R35L, D104A counted along it

binding result [1]: binds | binding result [2]: binds | binding result [3]: binds | binding result [4]: binds | binding result [5]: binds | binding result [6]: binds | binding result [7]: binds | binding result [8]: binds | binding result [9]: no binding | binding result [10]: no binding | binding result [11]: no binding | binding result [12]: no binding | binding result [13]: no binding | binding result [14]: no binding | binding result [15]: no binding | binding result [16]: no binding | binding result [17]: no binding | binding result [18]: no binding
B1: wild-type mB7-1 Fc (residues D37-K245, mIgG2a-10×His) (Fc fusion)
chain: DVDEQLSKSVKDKVLLPCRYNSPHEDESEDRIYWQKHDKVVLSVIAGKLKVWPEYKNRTLYDNTTYSLIILGLVLSDRGTYSCVVQKKERGTYEVKHLALVKLSIKADFSTPNITESGNPSADTKRITCFASGGFPKPRFSWLENGRELPGINTTISQDPESELYTISSQLDFNTTRNHTIKCLIKYGDAHVSEDFTWEKPPEDPPDSK
modifications: C-terminal mIgG2a Fc-10×His (dimerising carrier), not in the letters
notes: In the microbead assay it was loaded on protein A microbeads; also called B7-1 Fc-fusion; B7-1 Ig-fusion; not shown: the linker between ectodomain and Fc, the mouse IgG2a Fc and the 10xHis tag behind it

binding result [9]: no binding | binding result [10]: no binding | binding result [11]: no binding | binding result [12]: no binding | binding result [13]: no binding | binding result [14]: no binding | binding result [15]: no binding | binding result [16]: no binding | binding result [17]: no binding | binding result [18]: no binding | EC50 [19]: 8.3 nM
B2: wild-type mPD-1 Fc (residues L25-Q167, mIgG2a-10×His) (Fc fusion, mouse, not shown: a dimerising Fc or GST)
chain (part 1 of 2): LEVPNGPWRSLTFYPAWLTVSEGANATFTCSLSNWSEDLMLNWNRLSPSNQTEKQAAFCNGLSQPVQDARFQIIQLPNRHDFHMNILDTRRNDSGIYLCGAISLHPKAKIEESPGAELVVTERILETSTRYPSPSPKPEGRFQ
chain (part 2 of 2): HHHHHHHHHH
notes: range 25-167; In the microbead assay it was loaded on protein A microbeads; also called PD-1 Fc-fusion; PD-1 Ig-fusion
